Results from patent US20250027068.
Positions count from the first letter of the chain named.

B1: PRT-17 (protein)
chain: MANQEIRYSEVTPYHITSVWTKGVTPPTNFTQGEDVFHAPYKANQGWYDITKTFNGKDDLLCGAATAGNMLHWWFDQNKEEIERYLKEHPEKQKINFNGEQMFDVKEAIDTKGSQTDSKLFNYFKDKAFPYLSTKHLGVFPDHVLDMFINGYRLSLTNHGPTPVKEQSKDPRGGIFDAVFTRGDQSKLLTSRHDFKEKNLKEISDLIKKELTEGKALGLSHTYANVRINHVINLWGADFDSEGNLEAIYVTDSDSNASIGMKKYFVGVNSAGKVAISAKEIKGDNIGAQVLGLFTLSTGQDIWEKTN
B2: PRT-22 (protein)
chain: MANQEIRYSEVTPYHVTSVWTKGVTPPANFTQGEDVFHAPYVANQGWYDITKTFNGKDDLLCGAATAGNMLHWWFDQNKDQIERYLKEHPEKQKINFNGEQMFDVKEAIDTKNSQLDSKLFEYFKEKAFPYLSTKHLGVFPDHVIDMFINGYRLSLTNHGPTPVKEGSKDPRGGIFDAVFTRGDQSKLLTSRHDFKEKNLKEISDLIKKELTEGKALGLSHTYANVRINHVINLWGADFDSNGNLKAIYVTDSDSNASIGMKKYFVGVNSAGKVAISAKEIKEDNIGAQVLGLFTLSTGQDIWNQTN
B3: PRT-21 (protein)
chain: MANQEIRYSEVSPSTVTSVWTKGVTPPTNFTYGEDVLHAPYVANQGWYDITKTFNGKDDLLCGAATAGNMLHWWFDQNKEQIENYLKKHPEKQKINFNGEQMFDVKEAIDTKDSQLDSKLFEYFKEKAFPYLSTKHLGVFPDHVIDMFINGYRLSLTNHGPTPVKRGSKDPRGGIFDAVFTRGDQSKLLTNRHDFKEKTLKEISDLIKQELTEGKALGISHTYANVRINHVINLWGADFDAEGNLEAIYVTDSDSNASIGMKKYFVGVNSNGKVAISAKEIEEDNIGAQVLGLFTLSTGQDIWNQTN
B4: PRT-20 (protein)
chain: MANQEIRYSEATPYHITSVWTKGVTPPANFTQGEDVFHAPYVPNQGWYDITKTFNGKDDLLCGAATAGNMLHWWFDQNKDQIERYLKEHPEKQKINFNGEQMFDVKEAIDTKDSQTDSKLFNYFKEKAFPYLSTKHLGVFPDHVLDMFINGYRLSLTNHGPTPVKEQSKDPRGGIFDAVFTRGDQSTLLTSRHDFKEKTLKEISDLIKKELQEGKALGISHTYANVRINHVINLWGADFNSEGNLEAIYVTDSDSNASIGMKKYYVGVNSAGKVAISAKEIEDDNIGAQVLGLFTLSTGKDIWEQTN
B5: PRT-19 (protein)
chain: MANQEIRYSEESPSVVTSVWTKGVTPPANFTYGEDVFHAPYIANQGWYDITKTFNGKDDLLCGAATAGNMLHWWFDQNKDEIEAYLKKHPEKQKINFNGEQMFDVKEAIDTKDDQTNSKLFNYFKDKAFPYLSTKHLGVFPDHVLDMFINGYRLNLTNHGPTPVKEGSKDPRGGIFDAVFTRGDQSKLLTSRHDFKEKTLKEISDLIKQELTEGKALGLSHTYANVRINHVINLWGADFNSEGNLKAIYVTDSDSNASIGMKKYFVGVNAAGKVAISAKEIKDDNIGAQVLGLFTLSTGQDIWNQTN
B6: PRT-16 (protein)
chain: MANQEIRYSEETPYHITSVWTKGVTPPTDFTQGEDVFHAPYVANQGWYDITKTFNGKDDLLCGAATAGNMLHWWFDQNKDQIERYLKKHPEKQKINFNGEQMFDVKEAIDTKDSQTDSKLFEYFKDKAFPYLSTKHLGVFPDHVLDMFINGYRLNLTNHGPTPVKEGSKDPRGGIFDAVFTRGDQSKLLTSRHDFKEKNLKEISDLIKQELQEGKALGLSHTYANVRINHVINLWGADFDSNGNLKAIYVTDSDSNASIGMKKYYVGVNAAGKVAISAKEIEEDNIGAQVLGLFTLSLGQDIWNQTN
B7: PRT-15 (protein)
chain: MANQEIRYSEVTPYTITSVWTKGVTPPTNFTQGEDVFHAPYVANQGWYDITKTFNGKDDLLCGAATAGNMLHWWFDQNKDEIERYLKEHPEKQKINFNGEQMFDVKEAIDTKDSQTDSKLFEYFKDKAFPYLSTKHLGVFPDHVIDMFINGYRLSLTNHGPTPVKRGSKDPRGGIFDAVFTRGDQSKLLTSRHDFKEKNLNEISDLIKQELTEGKALGLSHTYANVRINHVINLWGADFNSNGNLKAIYVTDSDSNASIGMKKYFVGVNKAGKVAISAKEIKGDNIGAQVLGLFTLSTGQDIWEQTN
B8: PRT-18 (protein)
chain: MANQEIRYSEETPYHVTSVWTKGVTPPTNFTQGEDVFHAPYIANQGWYDITKTFNGKDDLLCGAATAGNMLHWWFDQNKEEIEKYLEEHPEKQKINFNGEQMFDVKEVIDTKDSQLDSKLFEYFKEKAFPYLSTKHLGVFPDHVIDMFINGYRLNLTNHGPTPVKEGSKDPRGGIFDAVFTRGDQSKLLTERHDFKEKTLKEISQLIKQELTEGKALGLSHTYANVRINHVINLWGADFDSEGNLEAIYVTDSDSNASIGMKKYFVGVNSAGKVAISAKEIEEDNIGAQVLGLFTLSTGQDIWEQTN
B9: PRT-227 (protein)
chain: MEVVEVWPYGQNPNGKTEILSQTEDSESLQRLRDIEDFQAEKKMQNVVYTKWLDGVDVKDHDFRKIVDGNIAYYATPLLNGRGFYDINKDFNRDSDKCAAAVAANMFHYWLDINRDNVDRFLRQNPEKHGIIELPDGQLKLSDFLNTYESDHGYRDKSKLFDFISNNFNGPVWTDKLLDNYINGYAYNYKYGRTIEDPTKNTSKINFFKEVFNEKILTNNHSIRNQNEFSVLLSEALYTGKAIGLSYGPAGLRHSLGHIISVWGADLDADGNVVAIYVTDSDDKKLTIGDERVGLKRYKISTDDENRLRLTAYEETHNTGGQIRGLYTLDTGKYAWADYFDKTEQTGTDQAEQLEHHHHHH
B10: PRT-229 (protein)
chain: B9 chain with M44K, Y327W
B11: PRT-230 (protein)
chain: B9 chain with H152N, Y327W
B12: PRT-238 (protein)
chain: B9 chain with N70G, K97L, F163Y, A186G, Y327W
B13: PRT-237 (protein)
chain: B9 chain with A72E, Y327W
B14: PRT-232 (protein)
chain: B9 chain with Y327W, Y334E
B15: PRT-231 (protein)
chain: B9 chain with L308A, Y327W
B16: PRT-228 (protein)
chain: B9 chain with V231D, Y327W
B17: PRT-233 (protein)
chain: B9 chain with I113R, Y327W
B18: PRT-236 (protein)
chain: B9 chain with K59D, Y327W
B19: PRT-234 (protein)
chain: B9 chain with H152D, Y327W
B20: PRT-235 (protein)
chain: B9 chain with H317D, Y327W

These proteins were tested against pooled human IgG.

| Protein | Enzyme Activity Endpoint Assay: Fab′2 | Enzyme Activity Endpoint Assay: Fc | Enzyme Activity Endpoint Assay: IgG | Enzyme Activity Endpoint Assay: scIgG | Enzyme Activity Endpoint Assay (purified): Fab'2 | Enzyme Activity Endpoint Assay (purified): Fc | Enzyme Activity Endpoint Assay (purified): IgG | Enzyme Activity Endpoint Assay (purified): scIgG |
| --- | --- | --- | --- | --- | --- | --- | --- | --- |
| B1 | 53 ng/µL | 116 ng/µL | 34 ng/µL | 0 ng/µL |  |  |  |  |
| B2 | 37 ng/µL | 116 ng/µL | 19 ng/µL | 23 ng/µL |  |  |  |  |
| B3 | 33 ng/µL | 111 ng/µL | 23 ng/µL | 28 ng/µL |  |  |  |  |
| B4 | 48 ng/µL | 124 ng/µL | 15 ng/µL | 13 ng/µL |  |  |  |  |
| B5 | 42 ng/µL | 108 ng/µL | 13 ng/µL | 13 ng/µL |  |  |  |  |
| B6 | 0 ng/µL | 0 ng/µL | 151 ng/µL | 0 ng/µL |  |  |  |  |
| B7 | 52 ng/µL | 136 ng/µL | 18 ng/µL | 17 ng/µL |  |  |  |  |
| B8 | 44 ng/µL | 105 ng/µL | 12 ng/µL | 11 ng/µL |  |  |  |  |
| B9 |  |  |  |  | 22 ng/µL | 331 ng/µL | 880 ng/µL | 492 ng/µL |
| B10 |  |  |  |  | 691 ng/µL | 243 ng/µL | 1270 ng/µL | 294 ng/µL |
| B11 |  |  |  |  | 699 ng/µL | 454 ng/µL | 513 ng/µL | 396 ng/µL |
| B12 |  |  |  |  | 0 ng/µL | 81 ng/µL | 1610 ng/µL | 28 ng/µL |
| B13 |  |  |  |  | 828 ng/µL | 415 ng/µL | 685 ng/µL | 461 ng/µL |
| B14 |  |  |  |  | 40 ng/µL | 283 ng/µL | 624 ng/µL | 393 ng/µL |
| B15 |  |  |  |  | 176 ng/µL | 388 ng/µL | 465 ng/µL | 313 ng/µL |
| B16 |  |  |  |  | 195 ng/µL | 583 ng/µL | 767 ng/µL | 557 ng/µL |
| B17 |  |  |  |  | 94 ng/µL | 376 ng/µL | 596 ng/µL | 415 ng/µL |
| B18 |  |  |  |  | 294 ng/µL | 615 ng/µL | 594 ng/µL | 472 ng/µL |
| B19 |  |  |  |  | 88 ng/µL | 376 ng/µL | 640 ng/µL | 432 ng/µL |
| B20 |  |  |  |  | 116 ng/µL | 448 ng/µL | 711 ng/µL | 483 ng/µL |
